Measurements reported in the RNAGym collection of RNA variant scans (doi:10.7554/elife.80360).

B1: HDV Ribozyme (parent)
chain: GGCCGGCAUGGUCCCAGCCUCCUCGCUGGCGCCGGCUGGGCAACAUUCCGAGGGGACCGUCCCCUCGGUAAUGGCGAAUGGGACCCA

Variants of: B1
Test: self-cleavage, relative activity (ratio to wild type); higher = more cleavage; co-transcriptional

Variant | self-cleavage
C63G A70G | 0.76
C63G A70U | 0.564
C63G A71G | 0.656
C63G A71U | 0.712
C63G A78G | 0.54
C63G A83C | 0.249
C63G A83U | 0.271
C63G C64A | 0.862
C63G C64U | 0.753
C63G C66U | 0.386
C63G C84G | 0.306
C63G C85A | 0.95
C63G G73U | 0.397
C63G G74C | 0.128
C63G U65A | 0.415
C63G U69A | 1.16
C63G U72G | 0.192
C63G U79A | 0.856
C63G U79C | 0.697
C63U A70G | 1.02
C63U A78C | 0.237
C63U A78G | 0.755
C63U A78U | 0.287
C63U A87U | 1.01

Variant | self-cleavage
C63U C66A | 0.978
C63U C75U | 0.324
C63U C84A | 0.76
C63U C86G | 1.11
C63U G67A | 0.933
C63U G67C | 0.96
C63U G67U | 1.02
C63U G68A | 0.973
C63U G73U | 0.409
C63U G76U | 1.15
C63U U69C | 0.964
C64A A87U | 0.71
C64A C66A | 0.573
C64A C66G | 0.489
C64A C75A | 0.237
C64A C75G | 0.18
C64A C75U | 0.332
C64A C85G | 0.594
C64A C86A | 0.942
C64A G73A | 0.385
C64A G73U | 0.332
C64A G82C | 0.199
C64A U65C | 0.831
C64A U69A | 1.06

Variant | self-cleavage
C64A U69G | 1.15
C64G A71U | 0.863
C64G A83C | 0.373
C64G C75G | 0
C64G C84G | 0.76
C64G C86A | 0.946
C64G G67A | 0.356
C64G G68C | 0.264
C64G G76C | 0.702
C64G G76U | 1.05
C64G G82C | 0.0811
C64G G82U | 0.228
C64G U69C | 1.29
C64G U69G | 0.91
C64G U72A | 0.614
C64U A70U | 1.01
C64U A77G | 1.01
C64U A87C | 0.971
C64U C66A | 0.95
C64U C66U | 1.01
C64U G68U | 0.607
C64U G73A | 0.81
C64U G80C | 0.158
C64U U79C | 0.306

Variant | self-cleavage
C64U U79G | 0.847
U65A A70U | 1.14
U65A A78C | 0.259
U65A A83U | 0.539
U65A A87U | 0.96
U65A C66A | 1.08
U65A C85A | 0.858
U65A C85U | 0.791
U65A G67A | 0.98
U65A G68A | 0.641
U65A G73U | 0.217
U65A G76U | 1.04
U65A G80A | 0.201
U65C A71C | 0.703
U65C A77U | 0.806
U65C A78C | 0.293
U65C A87C | 1.09
U65C C86G | 1.18
U65C G68C | 0.883
U65C G73A | 0.746
U65C G73U | 0.554
U65C G74A | 0.456
U65C G80C | 0.249
U65C U79C | 0.415

Variant | self-cleavage
U65G A70G | 1.05
U65G A70U | 0.892
U65G A71U | 0.863
U65G A77U | 0.554
U65G A78C | 0.119
U65G A78G | 0.957
U65G A87C | 0.859
U65G A87G | 0.973
U65G C66G | 0.812
U65G C75A | 0.259
U65G C75G | 0.323
U65G C84A | 1.04
U65G G67C | 0.156
U65G G67U | 0.569
U65G G76A | 0.95
U65G G80C | 0.185
U65G G82U | 0.453
U65G U69C | 0.877
U65G U79C | 0.19
C66A | 0.975
C66A A87C | 1
C66A C85G | 0.918
C66A U79C | 0.582
C66G | 0.973

Variant | self-cleavage
C66G A71C | 1.03
C66G A71G | 1.05
C66G A71U | 1.01
C66G A77G | 0.612
C66G A83G | 0.72
C66G A83U | 0.415
C66G A87C | 0.857
C66G A87G | 1.06
C66G A87U | 0.853
C66G C84G | 0.745
C66G C84U | 0.545
C66G C86A | 0.984
C66G C86G | 1.07
C66G C86U | 0.931
C66G G67A | 0.706
C66G G68C | 0.554
C66G G73C | 0.46
C66G G76A | 1.02
C66G G81A | 0.408
C66G G81C | 0.193
C66G G81U | 0.214
C66G U79C | 0.521
C66U | 1.01
C66U A71G | 0.909

Variant | self-cleavage
C66U A77C | 0.34
C66U A78C | 0.178
C66U A78G | 0.69
C66U A83G | 0.643
C66U A87C | 0.875
C66U A87G | 0.999
C66U C84G | 0.57
C66U G67A | 0.786
C66U G74U | 0.475
C66U G80U | 0.295
C66U G82U | 0.277
C66U U69G | 0.867
C66U U79C | 0.571
G67A A71C | 0.752
G67A A77U | 0.339
G67A A83C | 0.464
G67A A87C | 0.956
G67A A87U | 1.06
G67A C75G | 0.181
G67A G80U | 0.203
G67A G81A | 0.302
G67A G82C | 0.224
G67A U72A | 0.532
G67C A70G | 0.712

Variant | self-cleavage
G67C A71U | 0.716
G67C A77C | 0.227
G67C A78U | 0.225
G67C A83C | 0.293
G67C A87U | 0.858
G67C C75A | 0.0652
G67C C75G | 0.0475
G67C C75U | 0.0545
G67C G73U | 0.322
G67C G74C | 0.123
G67C G76A | 1.11
G67C G76U | 1.11
G67C U69A | 0.96
G67C U69C | 1
G67C U69G | 0.943
G67C U72G | 0.231
G67U A71U | 0.992
G67U A77C | 0.373
G67U A78U | 0.253
G67U A87G | 0.91
G67U A87U | 0.898
G67U C75U | 0.104
G67U C84U | 0.771
G67U C86A | 1

Variant | self-cleavage
G67U G74A | 0.379
G67U G74C | 0.151
G67U G80U | 0.25
G67U G81A | 0.254
G67U G82A | 0.28
G67U G82C | 0.182
G67U U69A | 0.801
G67U U72A | 0.665
G68A | 0.952
G68A A71C | 0.58
G68A A83C | 0.519
G68A A83G | 0.522
G68A A87C | 0.918
G68A C75A | 0.164
G68A C85G | 0.774
G68A G74A | 0.51
G68A G82U | 0.324
G68A U69G | 0.917
G68A U79A | 0.554
G68C | 0.911
G68C A70U | 0.778
G68C A71G | 0.831
G68C A78G | 0.426
G68C A83U | 0.318

Variant | self-cleavage
G68C A87U | 0.799
G68C C85A | 1.17
G68C G74A | 0.362
G68C G81A | 0.526
G68C G82C | 0.259
G68C U72A | 0.499
G68C U72C | 0.38
G68C U79G | 0.516
G68U | 0.932
G68U A77C | 0.232
G68U A77G | 0.578
G68U A78C | 0.161
G68U A83C | 0.538
G68U C75A | 0.234
G68U C85A | 0.707
G68U G73C | 0.205
G68U G73U | 0.0923
G68U G74A | 0.328
G68U G74C | 0.222
G68U G76C | 1.11
G68U G80U | 0.257
G68U G81A | 0.492
G68U G81U | 0.197
G68U U69C | 0.935

Variant | self-cleavage
U69A A70G | 0.98
U69A A71C | 0.935
U69A A71U | 1.27
U69A A77G | 0.72
U69A A78G | 0.959
U69A C75U | 0.155
U69A G73A | 0.619
U69A G74U | 0.665
U69A G81U | 0.332
U69A G82A | 0.233
U69C A70C | 1.23
U69C A70U | 0.875
U69C A71C | 0.475
U69C A77G | 0.997
U69C A78U | 0.375
U69C A83C | 0.57
U69C C84U | 0.852
U69C C85U | 1.15
U69C G74C | 0.0923
U69C G80C | 0.0396
U69C G81U | 0.369
U69C U72A | 0.499
U69C U72C | 0.9
U69G A70C | 1.15

Variant | self-cleavage
U69G A77G | 1.29
U69G A78C | 0.332
U69G A83G | 0.739
U69G A87G | 0.876
U69G C75G | 0.199
U69G C84G | 0.639
U69G C86U | 0.723
U69G G73U | 0.314
U69G G74A | 0.614
U69G G74U | 0.607
U69G G76C | 0.77
U69G G82C | 0.429
U69G G82U | 0.208
U69G U72A | 0.369
A70C A71U | 0.791
A70C A78G | 0.519
A70C A78U | 0.162
A70C C75A | 0.123
A70C C86A | 1.11
A70C C86U | 0.852
A70C G74U | 0.504
A70C G76U | 1.05
A70C G80A | 0.177
A70C G80C | 0.135

Variant | self-cleavage
A70C U72C | 0.369
A70C U79C | 0.18
A70G A71C | 0.712
A70G A71G | 0.918
A70G A77G | 0.831
A70G A78U | 0.151
A70G C84G | 0.475
A70G C85U | 1.01
A70G C86G | 1.03
A70G G74A | 0.453
A70G G74U | 0.65
A70G G76A | 0.92
A70G G80A | 0.271
A70G G80U | 0.177
A70G G82U | 0.415
A70G U72A | 0.594
A70U A71G | 1.09
A70U A71U | 0.98
A70U A77C | 0.0978
A70U A83G | 0.902
A70U A87C | 0.98
A70U C84G | 0.541
A70U G73C | 0.332
A70U G76A | 1.02

Variant | self-cleavage
A70U G76C | 1
A70U G80U | 0.222
A70U U72A | 0.415
A70U U72G | 0.554
A70U U79G | 0.617
A71C C85A | 0.578
A71C G73A | 0.45
A71C G76U | 0.91
A71C G80C | 0.302
A71C U72A | 0.332
A71C U72C | 0.185
A71C U72G | 0.465
A71C U79C | 0.269
A71G A77C | 0.45
A71G A78G | 0.772
A71G A78U | 0.229
A71G A83C | 0.415
A71G C84A | 1.02
A71G C86A | 1.19
A71G C86U | 0.665
A71G G73U | 0.291
A71G G80A | 0.288
